Experimental data as given in patent US20100047245A1.

How the values were obtained:
[1] = biological target: recombinant purified human IL-12 p70 (human) (UniProt P29459); experiment: cell-based or functional assay
[2] = biological target: recombinant purified human IL-12 p70 (human) (UniProt P29459); experiment: SPR (Biacore 3000), mAb captured via goat anti-mouse IgG Fc, human IL-12 p70 in solution
[3] = biological target: recombinant purified human IL-12 p70 (human) (UniProt P29459); experiment: SPR (BIAcore) per Example 1.1.B; antigen not restated, taken as human IL-12 p70
[4] = biological target: recombinant purified human IL-12 p70 (human) (UniProt P29459); experiment: SPR (BIAcore) per Example 1.1.B, recombinant human IL-12p70
[5] = biological target: recombinant purified human IL-12 p70 (human) (UniProt P29459); experiment: competition ELISA on plate-coated human IL-12; competes 0.8 µg/ml biotinylated 8E1; Expt. 3
[6] = biological target: recombinant purified human IL-12 p70 (human) (UniProt P29459); experiment: SPR (Biacore) per Example 1.1.B; antigen not restated, taken as human IL-12 p70

Chain of recombinant purified human IL-12 p70 (human) (chain, as listed by the source, form in doubt, chain 1 of 2): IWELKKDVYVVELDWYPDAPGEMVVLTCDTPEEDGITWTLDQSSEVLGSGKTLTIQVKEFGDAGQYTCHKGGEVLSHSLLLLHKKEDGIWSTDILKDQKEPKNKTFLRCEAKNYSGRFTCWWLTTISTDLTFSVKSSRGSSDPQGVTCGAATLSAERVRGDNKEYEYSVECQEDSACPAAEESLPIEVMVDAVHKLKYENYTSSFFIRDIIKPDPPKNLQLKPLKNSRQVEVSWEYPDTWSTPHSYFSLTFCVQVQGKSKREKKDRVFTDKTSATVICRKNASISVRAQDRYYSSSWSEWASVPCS
Chain of recombinant purified human IL-12 p70 (human) (P29459 23-219, form in doubt, chain 2 of 2): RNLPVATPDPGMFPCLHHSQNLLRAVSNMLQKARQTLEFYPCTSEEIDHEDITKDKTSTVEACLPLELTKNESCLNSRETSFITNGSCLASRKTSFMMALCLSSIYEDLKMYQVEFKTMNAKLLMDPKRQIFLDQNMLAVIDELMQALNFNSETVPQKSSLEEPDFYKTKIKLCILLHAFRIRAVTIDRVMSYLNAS

Binder	Average IC50 (nM) Human IL-12; PHA blast IFN-gamma induction assay [1]	Kd [2]	koff [2]	kon [2]	Av. IC50(nM) huIL-12; PHA blast IFN-gamma induction assay [1]	further results
1D8 (antibody, V domains shown) VH: QVQLQQSGAELMKPGASVKISCKATGYTFSSYWIEWVKQRPGHGLEWIGDILPGSGSTNYNEKFKDKATFTADTSFNTAYMQLSSLTSEDSAVYYCATRRFRGLDYWGQGTTLTVSS VL: SIVMTQTPKFLLVSAGDRVTITCKASQSVSNDVAWYQQKSGQSPKLLIYYASNRYTGVPDRFTGSGYGTDFTFTISTVQPEDLAVYFCQQDYTSPFTFGSGTKLEIKR	0.31 nM	0.044 nM	2.3e-05 s⁻¹	510000 M⁻¹ s⁻¹	–	–
1H6 (antibody, V domains shown) VH: EVKLVESGGGLVQPGGSRKLSCAASGFTFSDYGMVWVRQAPGKGLEWVAYISSGSSTIHYADTMKGRFTISRDNPKNTLFLQMSSLRSEDTAMYYCARRHYYAMDYWGQGTSVTVSS VL: SFVMTQTPKFLLVSAGDRVTITCKASQSVSNDVAWYQQKPGQSPKLLIYYASNRYTGVPDRFTGTGYGTDFTFTISTVQAEDLAVYFCQQDYTSPFTFGSGTKLEIKR	0.69 nM	0.25 nM	9.9e-05 s⁻¹	430000 M⁻¹ s⁻¹	–	–
3G7 (antibody, V domains shown) VH: QVQLQQSGAELMKPGASVKISCKATGYTFNDYWIEWVKQRPGHGLEWIGGFSHGSGSTNYNEKFKGKATFTADSSSNTAYMQLSSLTSEDSAVYYCARRRFRGMDYWGQGTSVTVSS VL: SIVMTQTPKFLLVSAGDRVTITCKASQSVSNDVAWYQQKPGQSPKLLIYYASNRYTGVPDRFTGSGYGTDFTFTITTVQAEDLAVYFCQQDYSSPWSFGGGTKLEIKR	0.15 nM	0.047 nM	3.8e-05 s⁻¹	820000 M⁻¹ s⁻¹	–	–
4B4 (antibody, V domains shown) VH: QVTLKESGPGILKPSQTLSLTCSLSGFSLSTSGMGVSWIRQPSGKGLEWLAHIWWDGDSYSNPSLRSRLTISRDTSRNQVFLRIATVDTADTATYYCARRTRVNYAMDYWGQGTSVTVSS VL: SVVMTQTPKFLLVSAGDRVTMTCKASQSVSNDVAWFQQKPGQSPKLLIYYASNRYTGVPDRFTGSGYGTDFTFTISTVQAEDLAVYFCQQDYNSPWTFGGGTKLEIKR	0.039 nM	0.1 nM	1.4e-05 s⁻¹	130000 M⁻¹ s⁻¹	–	–
8E1.4 (antibody, IgG1, V domains shown) VH: EVQLVESGGGLVQPGGSLRLSCAASGFTFSDYGMVWVRQAPGKGLEWVASISSGSSNIYYADTVKGRFTISRDNAKNTLYLQMNSLRAEDTAVYYCARNPYWGQGTLVTVSS VL: DIQMTQSPSSLSASVGDRVTITCKASQNVGTNVAWYQQKPGKAPKGLIYSASHRYSGVPSRFSGSGSGTDFTLTISSLQPEDFATYYCQQYNSYPLTFGGGTKVEIKR	–	–	–	–	12 nM	IC50 [5]: 8.33 µg/mL; Kd [6]: 1.3 nM; koff [6]: 0.001 s⁻¹; kon [6]: 800000 M⁻¹ s⁻¹
1A6.4 (antibody, human IgG1, V domains shown) VH: QVTLKESGPGILKPSQTLSLTCSFSGFSLSTSGMGVSWIRQPSGKGLEWLAHIWWDGDNYYNPSLKSQLTISKDTSRNQVFLRIATVDTADTATYYCARRTRVNYAMDYWGQGTSVTVSS VL: EIVMTQSPATLSVSPGERATLSCKASQSVSNDVAWYQQKPGQAPRLLIYYASNRYTGIPARFSGSGSGTEFTLTISSLQSEDFAVYYCQQDYNSPWTFGGGTKVEIKR	–	–	–	–	2.1 nM	Kd [3]: 1 nM; koff [3]: 0.00011 s⁻¹; kon [3]: 110000 M⁻¹ s⁻¹
1A6.9 (antibody, human IgG1, kappa, L234A L235A, V domains shown) VH: EVTLRESGPALVKPTQTLTLTCTFSGFSLSTSGMGVSWIRQPPGKALEWLAHIWWDGDNYYNPSLKSRLTISKDTSKNQVVLTMTNMDPVDTATYYCARRTRVNYAMDYWGQGTTVTVSS VL: SVVMTQSPDSLAVSLGERATINCKASQSVSNDVAWFQQKPGQPPKLLIYYASNRYTGVPDRFSGSGYGTDFTLTISSLQAEDVAVYYCQQDYNSPWTFGGGTKVEIKR	–	–	–	–	0.15 nM	Kd [4]: < 0.01 nM; koff [4]: < 1e-05 s⁻¹; kon [4]: 350000 M⁻¹ s⁻¹
1A6.12 (antibody, IgG1, V domains shown) VH: EVTLRESGPGLVKPTQTLTLTCTLYGFSLSTSGMGVSWIRQPPGKGLEWLAHIWWDGDNYYNPSLKSQLTISKDTSKNQVVLKLTSVDPVDTATYYCARRTRVNYAMDYWGQGTLVTVSS VL: DIQMTQSPSSLSASVGDRVTITCKASQSVSNDVAWFQQKPGKAPKLLIYYASNRYTGVPDRFSGSGYGTDFTFTISSLQPEDIATYYCQQDYNSPWTFGGGTKVEIKR	–	–	–	–	0.088 nM	Kd [6]: 0.4 nM; koff [6]: 0.0003 s⁻¹; kon [6]: 740000 M⁻¹ s⁻¹
1A6.10 (antibody, V domains shown) VH: EVTLRESGPGLVKPTQTLTLTCTLYGFSLSTSGMGVSWIRQPPGKGLEWLAHIWWDGDNYYNPSLKSQLTISKDTSKNQVVLKLTSVDPVDTATYYCARRTRVNYAMDYWGQGTLVTVSS VL: DIQMTQSPSSLSASVGDRVTITCKASQSVSNDVAWYQQKPGKAPKLLIYYASNRYTGVPDRFSGSGYGTDFTFTISSLQPEDIATYYCQQDYNSPWTFGGGTKVEIKR	–	–	–	–	0.15 nM	Kd [6]: 0.024 nM; koff [6]: 7.6e-06 s⁻¹; kon [6]: 320000 M⁻¹ s⁻¹

Further lines, with some results ahead:

Average IC50 (nM) Human IL-12; PHA blast IFN-gamma induction assay [1]	Kd [2]	koff [2]	kon [2]	Av. IC50(nM) huIL-12; PHA blast IFN-gamma induction assay [1]	Binder	further results
0.031 nM	0.12 nM	2.9e-05 s⁻¹	250000 M⁻¹ s⁻¹	–	1D4 (antibody, V domains shown) VH: QVTLKESGPGILQPSQTLSLTCSFSGFSLRKSVMGVSWIRQPSGKGLEWLAHIYWDDDKYYNPSLKSRLTISKDPSRNQVFLKITSVDTADAATYYCTRRGIRSAMDYWGQGTSVTVSS VL: SVVMTQTPKFLLVSAGDRVTITCKASQSVSNDVAWYQQKPGQSPKLLIYYASNRYTGVPDRFTGSGYGTDFTFIISTVRAEDLAVYFCQQDYNSPWTFGGGTKLEIKR	–
–	–	–	–	0.053 nM	1D4.5 (antibody, human IgG1, V domains shown) VH: QVTLKESGPGILQPSQTLSLTCSFSGFSLRKSVMGVSWIRQPSGKGLEWLAHIYWDDDKYYNPSLKSRLTISKDPSRNQVFLKITSVDTADAATYYCTRRGIRSAMDYWGQGTSVTVSS VL: DIVMTQSPDSLAVSLGERATINCKASQSVSNDVAWYQQKPGQPPKLLIYYASNRYTGVPDRFSGSGSGTDFTLTISSLQAEDVAVYYCQQDYNSPWTFGGGTKVEIKR	Kd [3]: 0.11 nM; koff [3]: 3.1e-05 s⁻¹; kon [3]: 300000 M⁻¹ s⁻¹
–	–	–	–	0.068 nM	1A6.3 (antibody, human IgG1, V domains shown) VH: EVTLKESGPVLVKPTETLTLTCTVSGFSLSTSGMGVSWIRQPPGKALEWLAHIWWDGDNYYNPSLKSRLTISKDTSKSQVVLTMTNMDPVDTATYYCARRTRVNYAMDYWGQGTTVTVSS VL: SVVMTQTPKFLLVSAGDRVTITCKASQSVSNDVAWFQQKPGQSPKLLIYYASNRYTGVPDRFTGSGYGTDFTFTISTVQAEDLAVYFCQQDYNSPWTFGGGTKLEIKR	Kd [3]: 0.14 nM; koff [3]: 2.6e-05 s⁻¹; kon [3]: 190000 M⁻¹ s⁻¹
12 nM	4 nM	0.0023 s⁻¹	570000 M⁻¹ s⁻¹	–	5E8 (antibody, V domains shown) VH: QIQLVQSGPELKKPGETVKISCKASGYSFTDYSMHWVKQAPGKGLKWMDWINTETGEPTYADDFKGRFAFSLETSASTAYLQINNLKNEDTATYFCSRRRYRAFDYWGQGTTLTVSS VL: SIVMTQSPKFLLVSAGDRVTITCKASQSVSNDVAWYQQKLGQSPKLLIYYASNRYTGVPDRFTGSGYGTDFTFTINTVQAEDLAVYFCQQDYTSPYTFGGGTKLEIQR	–
–	–	–	–	0.64 nM	1D4.4 (antibody, human IgG1, V domains shown) VH: EVTLRESGPALVKPTQTLTLTCTFSGFSLSKSVMGVSWIRQPPGKALEWLAHIYWDDDKYYNPSLKSRLTISKDTSKNQVVLTMTNMDPVDTATYYCARRGIRSAMDYWGQGTTVTVSS VL: SVVMTQTPKFLLVSAGDRVTITCKASQSVSNDVAWYQQKPGQSPKLLIYYASNRYTGVPDRFTGSGYGTDFTFIISTVRAEDLAVYFCQQDYNSPWTFGGGTKLEIKR	Kd [3]: 0.074 nM; koff [3]: 2.1e-05 s⁻¹; kon [3]: 280000 M⁻¹ s⁻¹
0.052 nM	0.23 nM	3.5e-05 s⁻¹	150000 M⁻¹ s⁻¹	–	1A6 (antibody, V domains shown) VH: QVTLKESGPGILKPSQTLSLTCSFSGFSLSTSGMGVSWIRQPSGKGLEWLAHIWWDGDNYYNPSLKSQLTISKDTSRNQVFLRIATVDTADTATYYCARRTRVNYAMDYWGQGTSVTVSS VL: SVVMTQTPKFLLVSAGDRVTITCKASQSVSNDVAWFQQKPGQSPKLLIYYASNRYTGVPDRFTGSGYGTDFTFTISTVQAEDLAVYFCQQDYNSPWTFGGGTKLEIKR	–
–	–	–	–	10 nM	8E1.3 (antibody, human IgG1, kappa, L234A L235A, V domains shown) VH: EVKLVESGGGLVQPGGSLRLSCAASGFTFSDYGMVWVRQAPGKGLEWVASISSGSSNIYYADTVKGRFTISRDDSKNTLYLQMNSLKTEDTAVYYCARNPYWGQGTTVTVSS VL: DIVMTQSPSSLSASVGDRVTITCKASQNVGTNVAWYQQKPEKAPKSLIYSASHRYSGVPSRFSGSGSGTDFTLTISSLQPEDFATYYCQQYNSYPLTFGGGTKVEIKR	Kd [4]: 0.76 nM; koff [4]: 0.001 s⁻¹; kon [4]: 1.3e+06 M⁻¹ s⁻¹
0.047 nM	0.27 nM	0.00028 s⁻¹	1.1e+06 M⁻¹ s⁻¹	–	7G3 (antibody, V domains shown) VH: EVQLQQSGAEFVRSGASVKLSCTASGLNIKDYYIHWVKQRPEQVLDWIGWIDPENGYSEYAPRFQDKATMTADTSSNTAYLHLSSLTSEDTAVYYCNPGELARYFDYWGQGTTLTVSS VL: DIVLSQSPATLSVTPGDSVSLSCRASQSISKNLHWYQQKSHESPRLLIKYTSQSISGIPSRFSGSGSGTDFTLSINSVETEDFGMYFCQQSISWPLTFGAGTKLELKR	–
